Results: the supplement of paper PMC11316812
± gives the standard deviation of the averaged measurements.

Legend:
MCF7 = assay: percentage of EdU-negative (G0-arrested) nuclei per well, 72 h; higher = more G0 arrest; conditions: reference: sequence is the full UniProt precursor, the tested protein was the secreted form or ectodomain
hTERT-HMEC = assay: as above; conditions: reference: sequence is the full UniProt precursor, the tested protein was the secreted form or ectodomain
[1] = protein concentration 0.03125 µM
[2] = protein concentration 0.3125 µM
[3] = protein concentration 0.0225 µM
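Note: secreted proteins added to cultured cells, EdU pulse at the end, nuclei found by Hoechst imaging, EdU status from nuclear versus surrounding ring intensity ratio, PBS as neutral control.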

Sequence | percentage of EdU-negative (MCF7; [1]) | percentage of EdU-negative (MCF7; [2]) | percentage of EdU-negative (hTERT-HMEC; [1]) | percentage of EdU-negative (hTERT-HMEC; [2]) | percentage of EdU-negative (MCF7; [3]) | percentage of EdU-negative (MCF7; protein concentration 0.225 µM) | percentage of EdU-negative (hTERT-HMEC; [3]) | percentage of EdU-negative (hTERT-HMEC; protein concentration 0.225 µM)
MAGPATQSPMKLMALQLLLWHSALWTVQEATPLGPASSLPQSFLLKCLEQVRKIQGDGAALQEKLVSECATYKLCHPEELVLLGHSLGIPWAPLSSCPSQALQLAGCLSQLHSGLFLYQGLLQALEGISPELGPTLDTLQLDVADFATTIWQQMEELGMAPALQPTQGAMPAFASAFQRRAGGVLVASHLQSFLEVSYRVLRHLAQP | 25 ± 0.82% | 27.5 ± 0.74% | 5.19 ± 0.94% | 9.86 ± 1.2% | – | – | – | –
MAGPLRAPLLLLAILAVALAVSPAAGSSPGKPPRLVGGPMDASVEEEGVRRALDFAVGEYNKASNDMYHSRALQVVRARKQIVAGVNYFLDVELGRTTCTKTQPNLDNCPFHDQPHLKRKAFCSFQIYAVPWQGTMTLSKSTCQDA | 26.2 ± 1.3% | 26.6 ± 2.9% | 5.05 ± 0.076% | 5.7 ± 0.21% | – | – | – | –
MAGPPRLLLLPLLLALARGLPGALAAQEVQQSPHCTTVPVGASVNITCSTSGGLRGIYLRQLGPQPQDIIYYEDGVVPTTDRRFRGRIDFSGSQDNLTITMHRLQLSDTGTYTCQAITEVNVYGSGTLVLVTEEQSQGWHRCSDAPPRASALPAPPTGSALPDPQTASALPDPPAASALPAALAVISFLLGLGLGVACVLARTQIKKLCSWRDKNSAACVVYEDMSHSRCNTLSSPNQYQ | – | – | – | – | 25.1 ± 0.98% | 24.68 ± 0.088% | 5.29 ± 0.21% | 4.88 ± 0.12%
MAGPWTFTLLCGLLAATLIQATLSPTAVLILGPKVIKEKLTQELKDHNATSILQQLPLLSAMREKPAGGIPVLGSLVNTVLKHIIWLKVITANILQLQVKPSANDQELLVKIPLDMVAGFNTPLVKTIVEFHMTTEAQATIRMDTSASGPTRLVLSDCATSHGSLRIQLLHKLSFLVNALAKQVMNLLVPSLPNLVKNQLCPVIEASFNGMYADLLQLVKVPISLSIDRLEFDLLYPAIKGDTIQLYLGAKLLDSQGKVTKWFNNSAASLTMPTLDNIPFSLIVSQDVVKAAVAAVLSPEEFMVLLDSVLPESAHRLKSSIGLINEKAADKLGSTQIVKILTQDTPEFFIDQGHAKVAQLIVLEVFPSSEALRPLFTLGIEASSEAQFYTKGDQLILNLNNISSDRIQLMNSGIGWFQPDVLKNIITEIIHSILLPNQNGKLRSGVPVSLVKALGFEAAESSLTKDALVLTPASLWKPSSPVSQ [Q8TDL5] | – | – | – | – | 25.5 ± 0.91% | 30.5 ± 0.65% | 5.17 ± 0.22% | 8.84 ± 0.099%
MAGRLLGKALAAVSLSLALASVTIRSSRCRGIQAFRNSFSSSWFHLNTNVMSGSNGSKENSHNKARTSPYPGSKVERSQVPNEKVGWLVEWQDYKPVEYTAVSVLAGPRWADPQISESNFSPKFNEKDGHVERKSKNGLYEIENGRPRNPAGRTGLVGRGLLGRWGPNHAADPIITRWKRDSSGNKIMHPVSGKHILQFVAIKRKDCGEWAIPGGMVDPGEKISATLKREFGEEALNSLQKTSAEKREIEEKLHKLFSQDHLVIYKGYVDDPRNTDNAWMETEAVNYHDETGEIMDNLMLEAGDDAGKVKWVDINDKLKLYASHSQFIKLVAEKRDAHWSEDSEADCHAL [Q9BW91] | – | – | – | – | 26.4 ± 1.5% | 26.1 ± 0.32% | 4.99 ± 0.81% | 5.67 ± 0.54%
MAGSPTCLTLIYILWQLTGSAASGPVKELVGSVGGAVTFPLKSKVKQVDSIVWTFNTTPLVTIQPEGGTIIVTQNRNRERVDFPDGGYSLKLSKLKKNDSGIYYVGIYSSSLQQPSTQEYVLHVYEHLSKPKVTMGLQSNKNGTCVTNLTCCMEHGEEDVIYTWKALGQAANESHNGSILPISWRWGESDMTFICVARNPVSRNFSSPILARKLCEGAADDPDSSMVLLCLLLVPLLLSLFVLGLFLWFLKRERQEEYIEEKKRVDICRETPNICPHSGENTEYDTIPHTNRTILKEDPANTVYSTVEIPKKMENPHSLLTMPDTPRLFAYENVI [Q9NQ25] | – | – | – | – | 27.18 ± 0.048% | 27.7 ± 1.3% | 5 ± 0.45% | 6.3 ± 0.74%
MAHRPPSPALASVLLALLLSGAARAAEIVGGHEAQPHSRPYMASLQMRGNPGSHFCGGTLIHPSFVLTAAHCLRDIPQRLVNVVLGAHNVRTQEPTQQHFSVAQVFLNNYDAENKLNDVLLIQLSSPANLSASVATVQLPQQDQPVPHGTQCLAMGWGRVGAHDPPAQVLQELNVTVVTFFCRPHNICTFVPRRKAGICFGDSGGPLICDGIIQGIDSFVIWGCATRLFPDFFTRVALYVDWIRSTLRRVEAKGRP | – | – | – | – | 25.4 ± 0.57% | 28.984 ± 0.026% | 4.55 ± 0.18% | 4.49 ± 0.19%
MAILMLSLQLILLLIPSISHEAHKTSLSSWKHDQDWANVSNMTFSNGKLRVKGIYYRNADICSRHRVTSAGLTLQDLQLWCNLRSVARGQIPSTL [Q6UY13] | – | – | – | – | 26.9 ± 1.6% | 27.81 ± 0.22% | 4.87 ± 0.78% | 5.92 ± 0.39%
